The series deals with the molecule itself. Description: thioflavin-T fluorescence (emission spectra and kinetics); 20 uM Th-T with 1-400 uM Stm1_N 1-113; 10 mM sodium phosphate with 10 or 150 mM NaCl, pH 7.4, 25 °C; emission at 0 h, kinetics until 72 h; signal from 50 uM onwards.

These results are taken from publication PMC10620681, “Concentration and time-dependent amyloidogenic characteristics of intrinsically disordered N-terminal region of Saccharomyces cerevisiae Stm1” (Frontiers in Microbiology, 2023).

B1: Stm1 N-terminal region (Stm1_N^1-113) of Saccharomyces cerevisiae Stm1 (domain or fragment, UniProt P39015 1-113, looked up)
chain: MSNPFDLLGNDVEDADVVVLPPKEIVKSNTSSKKADVPPPSADPSKARKNRPRPSGNEGAIRDKTAGRRNNRSKDVTDSATTKKSNTRRATDRHSRTGKTDTKKKVNQGWGDD
notes: Stm1, Saccharomyces cerevisiae (S288c), stm1 gene YLR150W, residues 1-113 of the 273 amino acids long protein; the insert is 342 nucleotides with the termination codon; Order in the construct: N-terminal His6-tag, GB1 solubility tag, TEV protease cleavage site, Stm1_N 1-113 (vector pDZ1, a modified pET-21a); A few residues from the TEV site and the NdeI site may be left at the N-terminus after …
With B1, the binding result is given as “binds”.
